Experimental data reported in PMC4721528.
Where a chain is given by its changes, count along the chain named. In names and notes the source's numbering stands.

Substrate: CCCCC/C=C\C/C=C\C/C=C\C/C=C\CCCC(=O)O
Test: mass spectrometric product formation assay
Type: biochemical, Mus musculus
Conditions: 50 nM enzyme

B1: mCOX-2 (mouse COX-2) (Mus musculus; L489M) (protein)
chain: ANPCCSNPCQNRGECMSTGFDQYKCDCTRTGFYGENCTTPEFLTRIKLLLKPTPNTVHYILTHFKGVWNIVNNIPFLRSLIMKYVLTSRSYLIDSPPTYNVHYGYKSWEAFSNLSYYTRALPPVADDCPTPMGVKGNKELPDSKEVLEKVLLRREFIPDPQGSNMMFAFFAQHFTHQFFKTDHKRGPGFTRGLGHGVDLNHIYGETLDRQHKLRLFKDGKLKYQVIGGEVYPPTVKDTQVEMIYPPHIPENLQFAVGQEVFGLVPGLMMYATIWLREHNRVCDILKQEHPEWGDEQLFQTSRLILIGETIKIVIEDYVQHLSGYHFKLKFDPELLFNQQFQYQNRIASEFNTLYHWHPLLPDTFNIEDQEYSFKQFLYNNSILLEHGLTQFVESFTRQIAGRVAGGRNVPIAVQAVAKASIDQSREMKYQSLNEYRKRFSLKPYTSFEELTGEKEMAAELKALYSDIDVMEMYPALLVEKPRPDAIFGETMVELGAPFSLKGLMGNPICSPQYWKPSTFGGEVGFKIINTASIQSLICNNVKGCPFTSFNVQDPQPTKTATINASASHSRLDDINPTVLIKRRSTEL
Km: 1.4 ± 0.3 µM
kcat: 3.3 ± 0.1 s^–1

B2: mCOX-2 (mouse COX-2) (Mus musculus) (protein)
chain: B1 chain with M472L
Km: 2.3 ± 0.3 µM
kcat: 3.1 ± 0.1 s^–1
